Laboratory results: PMC4867592, “Targeting multiple response regulators of Mycobacterium tuberculosis augments the host immune response to infection” (Scientific Reports, 2016)
Where a chain is given by its changes, count along the chain named.

How the values were obtained:
Assay in all cases: EMSA
RegX3 K204A K204A = target: T1, RegX3 K204A K204A (UniProt P9WGL9)
T1 sequence: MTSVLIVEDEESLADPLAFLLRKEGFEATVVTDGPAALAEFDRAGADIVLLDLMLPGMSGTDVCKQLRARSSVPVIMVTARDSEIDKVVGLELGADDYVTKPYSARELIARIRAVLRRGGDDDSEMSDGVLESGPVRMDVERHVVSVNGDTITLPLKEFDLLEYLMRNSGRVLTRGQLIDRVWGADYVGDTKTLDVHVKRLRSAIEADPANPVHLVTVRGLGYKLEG

RegX3 L201A L201A = target: T2, RegX3 L201A L201A (UniProt P9WGL9)
T2 sequence: T1 sequence with L201A, A204K

RegX3 R202A R202A = target: T3, RegX3 R202A R202A (UniProt P9WGL9)
T3 sequence: T1 sequence with R202A, A204K

ACCGGCTTGGGACCGGCACCGCGGTACTGTGTGCGTTCGGCACCGCGCTGCACCCGCGGTTCGGGCCGGATTCGTCCGCGCGGCACCGCCGTTCGGGCGC (double strand) [ppK1 promoter fragment]
binding (RegX3 K204A K204A): no binding | binding (RegX3 L201A L201A): no binding | binding (RegX3 R202A R202A): binds
